Results as given in paper PMC3826667, “S100A9 protein is a novel ligand for the CD85j receptor and its interaction is implicated in the control of HIV-1 replication by NK cells” (Retrovirology, 2013).
Each block holds one binder with its values, some of them ahead of it.

Molecular target: T1, recombinant CD85j-Fc fusion protein (human, UniProt Q8NHL6 24-461)
T1 construct: CD85j (LILRB1, ILT2, LIR-1), human; also called CD85j fusion protein; LILRB1; source: bought: R&D System
Experiment: ELISA; anti-GST mAb-coated wells, 4 ug/mL GST-tagged S100A8 or S100A9 captured, increasing amounts of CD85j-Fc, 2 h at 37°C; detected with HRP anti-human-Fc
Conditions: both partners purified

T1 sequence (Q8NHL6 24-461): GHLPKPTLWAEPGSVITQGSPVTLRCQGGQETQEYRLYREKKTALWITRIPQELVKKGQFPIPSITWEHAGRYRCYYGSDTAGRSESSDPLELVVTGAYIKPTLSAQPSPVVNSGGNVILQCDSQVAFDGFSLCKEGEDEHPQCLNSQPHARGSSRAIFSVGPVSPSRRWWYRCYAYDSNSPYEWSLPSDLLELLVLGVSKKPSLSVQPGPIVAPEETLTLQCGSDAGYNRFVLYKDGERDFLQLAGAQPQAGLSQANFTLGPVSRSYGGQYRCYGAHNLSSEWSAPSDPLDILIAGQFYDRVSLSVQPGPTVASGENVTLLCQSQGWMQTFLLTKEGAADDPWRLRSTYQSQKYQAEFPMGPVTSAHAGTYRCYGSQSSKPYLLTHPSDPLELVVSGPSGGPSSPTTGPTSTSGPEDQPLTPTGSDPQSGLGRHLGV

binding result: binds
B1: full-length recombinant GST-tagged human S100A9 monomer (natural protein, UniProt P06702 1-114, looked up)
chain: MTCKMSQLERNIETIINTFHQYSVKLGHPDTLNQGEFKELVRKDLQNFLKKENKNEKVIEHIMEDLDTNADKQLSFEEFIMLMARLTWASHEKMHEGDEGPGHHHKPGLGEGTP
notes: S100A9, human, full-length recombinant, GST-tagged; source: bought: Tebu-bio

binding result: binds
B2: recombinant GST-tagged human S100A8 monomer protein (natural protein, UniProt P05109 1-93, looked up)
chain: MLTELEKALNSIIDVYHKYSLIKGNFHAVYRDDLKKLLETECPQYIRKKGADVWFKELDINTDGAVNFQEFLILVIKMGVAAHKKSHEESHKE
notes: S100A8, human, recombinant, GST-tagged; source: bought: Tebu-bio
